# Source: the supplement of paper PMC10724198
# ± gives the standard deviation of the averaged measurements.
# Test system: Saccharomyces cerevisiae
# Experiment: protein stability index of tFT-peptide fusion (C-terminal peptide) (PSI (0-1 scale)); higher = more stable (slower turnover)
# Conditions: genetic background: wild type; temperature: 30 C
# Method: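 Multiplexed protein stability (MPS) profiling in S. cerevisiae. Random 12-aa peptides (tFT-X12 library) are fused to the C-terminus of a sfGFP-mCherry tandem fluorescent timer, after mCherry and a GGGS linker. Cells are FACS-sorted into 8 mCherry/sfGFP bins and deep-sequenced. The protein stability index (PSI) is the read-weighted bin average, scaled from 0 (unstable) to 1 (stable). Only peptides with >10 reads are reported; cells were grown at 30 °C in SC-His with glucose.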
# 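Also: PSI is a weighted mean of sequencing reads over stability bins, variants kept only with over 10 reads, mCherry proximal and sfGFP distal, peptide attached via GGGS linker.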
row,Sequence,protein stability index
1,FVCLRWAVGLGG,0.6204 ± 0.0013
2,FVFGECRGWALV,0.76 ± 0.046
3,FVFSMDAFRSGL,0.665 ± 0.045
4,FVGDPRRLSLPI,0.761 ± 0.14
5,FVGPAWLGVRSC,0.659 ± 0.012
6,FVGVGLVRVVGW,0.618 ± 0.018
7,FVGWGLGVGTHD,0.679 ± 0.0054
8,FVKQSHYCLFHL,0.634 ± 0.011
9,FVLISSPLLRSF,0.623 ± 0.017
10,FVLPLAPAGIAS,0.5817 ± 0.0038
11,FVSRLWKIPTES,0.583 ± 0.034
12,FVVVLSPLVILQ,0.5344 ± 0.0049
13,FVWSGVGCWSEA,0.701 ± 0.0076
14,FWAWEGCTRALM,0.681 ± 0.07
15,FWGCFVWFCVCG,0.509 ± 0.023
16,FWGPVWNVSWGV,0.695 ± 0.019
17,FWSRGANGGVLV,0.6775 ± 0.0037
18,FYPHFCAHTRPH,0.7265 ± 0.0054
19,FYSPSAPSPFFL,0.797 ± 0.052
20,GADSWFGVVDVC,0.75 ± 0.1
21,GAEHGVRTTAVT,0.658 ± 0.014
22,GAEKEPEPRRLA,0.699 ± 0.06
23,GAGGVWGGGQAG,0.696 ± 0.041
24,GAGLGGGRGRRW,0.68617 ± 0.00065
25,GAGRLGGDRVVG,0.698 ± 0.037
26,GAGVEIGKSRYR,0.716 ± 0.074

row,Sequence,protein stability index
1,GAKCLFVSGGGI,0.6804 ± 0.0047
2,GALYGARCNFEL,0.72017 ± 0.00015
3,GAMLAGRQGWGL,0.679 ± 0.018
4,GAPPLAPTPPPP,0.745 ± 0.024
5,GAPPRPKTGRTF,0.7118 ± 0.00075
6,GAPRESSEGRAQ,0.725 ± 0.095
7,GAPVGRRPGRDR,0.703 ± 0.035
8,GAREHGSNDYGP,0.635 ± 0.036
9,GARSARVWARAK,0.664 ± 0.022
10,GARVRIRVNDKK,0.677 ± 0.021
11,GASPLPSPADHL,0.717 ± 0.14
12,GATGGACGVWAG,0.668 ± 0.048
13,GAVRGDRLTHTG,0.734 ± 0.028
14,GAVRGGSGDWGR,0.723 ± 0.0083
15,GAWFSWLGEVVG,0.701 ± 0.075
16,GCASTNTPSTTP,0.714 ± 0.022
17,GCENSRRSWRPD,0.609 ± 0.028
18,GCFTLLCFRRIL,0.511 ± 0.012
19,GCGCVVRVWSGV,0.6621 ± 0.0013
20,GCGDSLGGERRE,0.643 ± 0.1
21,GCLCAGSMVGDL,0.666 ± 0.015
22,GCLLVVGGVWGS,0.625 ± 0.036
23,GCLVGRGQRGTE,0.686 ± 0.026
24,GCQVAVGRAGGV,0.659 ± 0.023
25,GCRGGLREAGVW,0.768 ± 0.024
26,GCRLVSDCRVFV,0.67 ± 0.031

row,Sequence,protein stability index
1,GCSLTFAGLFCI,0.629 ± 0.01
2,GCTNSCGRHVKG,0.6426 ± 0.006
3,GCWGGLGAPGVS,0.734 ± 0.028
4,GDFFVSFRCLLL,0.606 ± 0.027
5,GDNRSVSRKAEW,0.614 ± 0.047
6,GDRAKTKQRESN,0.671 ± 0.01
7,GDTKKRTQGRGV,0.653 ± 0.011
8,GDTRILKSRPEI,0.699 ± 0.0098
9,GEAFLVRRSRNR,0.722 ± 0.082
10,GEAVTGQRGATS,0.71 ± 0.025
11,GEDGCGWSEAGG,0.664 ± 0.017
12,GEEGAWSRQGPP,0.658 ± 0.035
13,GEEGQRGRGWRS,0.733 ± 0.039
14,GEGNAIGQVVRN,0.681 ± 0.021
15,GEILTLYLLPRL,0.705 ± 0.052
16,GELADVVWLGGE,0.652 ± 0.057
17,GENTRKNNVVGE,0.69 ± 0.017
18,GENVVPGLHTQV,0.675 ± 0.064
19,GEPSYLEYSNLV,0.765 ± 0.042
20,GEQEKRFFLSPL,0.717 ± 0.021
21,GERWGGGRAAET,0.714 ± 0.076
22,GETGGRSQDARI,0.744 ± 0.088
23,GEVAQDLGRDIL,0.7124 ± 0.0019
24,GEYLWVHRIISE,0.679 ± 0.086
25,GEYYAPVVGRRF,0.7121 ± 0.0031
26,GFCLGSLPQRLD,0.65 ± 0.019

row,Sequence,protein stability index
1,GFCWFRGVGSGG,0.683 ± 0.044
2,GFFNNRLASSLR,0.734 ± 0.098
3,GFFRRNLGRVMD,0.608 ± 0.074
4,GFGLACGRCMGS,0.623 ± 0.098
5,GFLGLLASFFVL,0.604 ± 0.022
6,GFLSSLRLLPPF,0.688 ± 0.029
7,GFLSSSKSCRCH,0.632 ± 0.059
8,GFNRRVWRGLGV,0.721 ± 0.053
9,GFRLCVFGSSLF,0.6956 ± 0.0025
10,GFSLGAPRPFVQ,0.718 ± 0.039
11,GFSSVPFFPLSR,0.7142 ± 0.003
12,GFTCGCSSMKNF,0.718 ± 0.021
13,GFVPRSFNTLTS,0.664 ± 0.053
14,GFVPWVCGVRMS,0.689 ± 0.051
15,GFWESLGGVGAE,0.697 ± 0.049
16,GGAAAWAERCGG,0.726 ± 0.0097
17,GGACGRRSEDCQ,0.633 ± 0.087
18,GGAEEGRANCWN,0.722 ± 0.1
19,GGAFPGPGFGLD,0.68 ± 0.017
20,GGAPMRPGGGTC,0.678 ± 0.065
21,GGASRLARMGWW,0.642 ± 0.034
22,GGAVGYRLVACD,0.656 ± 0.11
23,GGAVSRVGEWGR,0.7881 ± 0.0073
24,GGCGSAGRGQRG,0.697 ± 0.062
25,GGCGWRGDGGGA,0.679 ± 0.13
26,GGCSRYVLILFD,0.686 ± 0.15

row,Sequence,protein stability index
1,GGDCGERRGNEV,0.65 ± 0.05
2,GGEGWGAFWGGE,0.713 ± 0.05
3,GGELGGTGVGGG,0.6881 ± 0.0016
4,GGFKGGKWVVEG,0.606 ± 0.021
5,GGFRREPWEILR,0.649 ± 0.0012
6,GGFSLTGSLCID,0.687 ± 0.035
7,GGGAAGILWGLG,0.694 ± 0.013
8,GGGAGGVVGGIS,0.694 ± 0.027
9,GGGAGLVGGCVA,0.735 ± 0.019
10,GGGARQAGGDNI,0.666 ± 0.045
11,GGGCGGACRPVG,0.692 ± 0.14
12,GGGCGGGGSSCA,0.654 ± 0.069
13,GGGCGGGQAGCQ,0.691 ± 0.043
14,GGGCGMEPGCGP,0.687 ± 0.062
15,GGGFRVLCVGLG,0.627 ± 0.037
16,GGGGEDQSQGPP,0.69 ± 0.027
17,GGGGFGFGWSMV,0.709 ± 0.059
18,GGGGGECCFLEG,0.753 ± 0.081
19,GGGGGGGSRTGA,0.691 ± 0.037
20,GGGGGGPSGGSG,0.701 ± 0.079
21,GGGGGGVDWFEI,0.71359 ± 2.1e-05
22,GGGGGISGGRWG,0.667 ± 0.075
23,GGGGGLRVSCGT,0.679 ± 0.083
24,GGGGGVWGVGRV,0.66 ± 0.047
25,GGGGRWGVLVLG,0.504 ± 0.0062
26,GGGGVACAGCTV,0.637 ± 0.056

row,Sequence,protein stability index
1,GGGGWGGAGLVG,0.704 ± 0.014
2,GGGMRLVKRACY,0.64 ± 0.031
3,GGGNRGTGCDWG,0.628 ± 0.013
4,GGGPGRGVWVRV,0.705 ± 0.021
5,GGGRCSGDGDRG,0.708 ± 0.063
6,GGGREGNGRERS,0.594 ± 0.053
7,GGGRWWRVGVGF,0.729 ± 0.021
8,GGGVDSGWGKGE,0.688 ± 0.024
9,GGGVGVPDSASE,0.681 ± 0.047
10,GGKKRGVRMCGG,0.655 ± 0.013
11,GGLGGWAECGRW,0.748 ± 0.11
12,GGLLGRLWDGGA,0.723 ± 0.04
13,GGLREPIYQLWV,0.648 ± 0.076
14,GGMAFSRPSFNG,0.729 ± 0.032
15,GGMMRGHRHRCW,0.812 ± 0.0095
16,GGPPTQAKPSPR,0.647 ± 0.012
17,GGPSLTRCAAFG,0.677 ± 0.063
18,GGQGFWRLWCLG,0.686 ± 0.05
19,GGQRPKRQQLTT,0.7022 ± 0.0058
20,GGREVGQVLWDD,0.667 ± 0.024
21,GGREWRGGQGEV,0.669 ± 0.12
22,GGRGGRSGTEGE,0.6763 ± 0.0011
23,GGRGPRGAANRG,0.634 ± 0.066
24,GGRRKKRVTPGE,0.656 ± 0.0097
25,GGRRRAWLGGRW,0.746 ± 0.012
